In PMC9496920, “Anti-PTK7 Monoclonal Antibodies Inhibit Angiogenesis by Suppressing PTK7 Function” (Cancers, 2022):

Target: KDR-HA (human KDR with a C-terminal HA tag) (human, UniProt P35968 20-1356)
Assay: cell-based or functional assay

Chain of KDR-HA (human KDR with a C-terminal HA tag) (P35968 20-1356): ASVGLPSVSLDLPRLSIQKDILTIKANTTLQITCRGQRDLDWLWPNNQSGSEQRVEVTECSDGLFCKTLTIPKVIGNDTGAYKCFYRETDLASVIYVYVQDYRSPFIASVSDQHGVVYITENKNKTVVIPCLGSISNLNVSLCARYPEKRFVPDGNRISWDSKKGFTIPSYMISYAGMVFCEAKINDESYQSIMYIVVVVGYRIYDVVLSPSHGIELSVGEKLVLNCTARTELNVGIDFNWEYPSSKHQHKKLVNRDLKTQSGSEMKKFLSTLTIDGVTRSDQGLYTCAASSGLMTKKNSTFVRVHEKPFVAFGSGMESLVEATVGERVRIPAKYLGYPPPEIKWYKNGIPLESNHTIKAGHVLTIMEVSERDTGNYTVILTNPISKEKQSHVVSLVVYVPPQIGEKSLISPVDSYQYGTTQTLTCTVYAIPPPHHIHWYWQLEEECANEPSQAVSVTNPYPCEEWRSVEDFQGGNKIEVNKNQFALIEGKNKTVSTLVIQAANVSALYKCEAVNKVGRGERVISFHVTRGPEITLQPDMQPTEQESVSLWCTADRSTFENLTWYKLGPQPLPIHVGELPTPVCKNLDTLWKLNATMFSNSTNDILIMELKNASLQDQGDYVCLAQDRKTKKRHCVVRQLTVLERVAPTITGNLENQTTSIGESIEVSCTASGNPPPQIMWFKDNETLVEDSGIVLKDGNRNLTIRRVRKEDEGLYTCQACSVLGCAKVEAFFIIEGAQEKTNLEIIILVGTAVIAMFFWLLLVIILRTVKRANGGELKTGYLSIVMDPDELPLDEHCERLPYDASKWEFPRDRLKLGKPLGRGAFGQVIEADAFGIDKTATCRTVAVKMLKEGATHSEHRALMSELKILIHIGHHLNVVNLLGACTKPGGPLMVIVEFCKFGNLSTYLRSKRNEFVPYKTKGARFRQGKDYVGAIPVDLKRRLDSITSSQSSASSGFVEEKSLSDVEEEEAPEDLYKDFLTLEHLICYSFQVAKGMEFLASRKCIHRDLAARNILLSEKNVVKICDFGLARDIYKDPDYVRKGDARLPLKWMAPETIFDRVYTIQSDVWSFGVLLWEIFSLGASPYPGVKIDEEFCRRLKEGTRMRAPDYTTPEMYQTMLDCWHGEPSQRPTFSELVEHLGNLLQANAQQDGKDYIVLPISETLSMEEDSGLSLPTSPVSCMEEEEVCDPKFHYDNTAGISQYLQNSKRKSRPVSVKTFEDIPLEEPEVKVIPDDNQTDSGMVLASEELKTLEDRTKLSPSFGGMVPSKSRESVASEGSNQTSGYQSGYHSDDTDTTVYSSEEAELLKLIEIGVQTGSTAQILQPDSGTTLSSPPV

B1: PTK7-FLAG (human PTK7 with a C-terminal FLAG tag) (receptor, UniProt Q13308 31-1070, looked up)
chain: AIVFIKQPSSQDALQGRRALLRCEVEAPGPVHVYWLLDGAPVQDTERRFAQGSSLSFAAVDRLQDSGTFQCVARDDVTGEEARSANASFNIKWIEAGPVVLKHPASEAEIQPQTQVTLRCHIDGHPRPTYQWFRDGTPLSDGQSNHTVSSKERNLTLRPAGPEHSGLYSCCAHSAFGQACSSQNFTLSIADESFARVVLAPQDVVVARYEEAMFHCQFSAQPPPSLQWLFEDETPITNRSRPPHLRRATVFANGSLLLTQVRPRNAGIYRCIGQGQRGPPIILEATLHLAEIEDMPLFEPRVFTAGSEERVTCLPPKGLPEPSVWWEHAGVRLPTHGRVYQKGHELVLANIAESDAGVYTCHAANLAGQRRQDVNITVATVPSWLKKPQDSQLEEGKPGYLDCLTQATPKPTVVWYRNQMLISEDSRFEVFKNGTLRINSVEVYDGTWYRCMSSTPAGSIEAQARVQVLEKLKFTPPPQPQQCMEFDKEATVPCSATGREKPTIKWERADGSSLPEWVTDNAGTLHFARVTRDDAGNYTCIASNGPQGQIRAHVQLTVAVFITFKVEPERTTVYQGHTALLQCEAQGDPKPLIQWKGKDRILDPTKLGPRMHIFQNGSLVIHDVAPEDSGRYTCIAGNSCNIKHTEAPLYVVDKPVPEESEGPGSPPPYKMIQTIGLSVGAAVAYIIAVLGLMFYCKKRCKAKRLQKQPEGEEPEMECLNGGPLQNGQPSAEIQEEVALTSLGSGPAATNKRHSTSDKMHFPRSSLQPITTLGKSEFGEVFLAKAQGLEEGVAETLVLVKSLQSKDEQQQLDFRRELEMFGKLNHANVVRLLGLCREAEPHYMVLEYVDLGDLKQFLRISKSKDEKLKSQPLSTKQKVALCTQVALGMEHLSNNRFVHKDLAARNCLVSAQRQVKVSALGLSKDVYNSEYYHFRQAWVPLRWMSPEAILEGDFSTKSDVWAFGVLMWEVFTHGEMPHGGQADDEVLADLQAGKARLPQPEGCPSKLYRLMQRCWALSPKDRPSFSEIASALGDSTVDSKP
B1 was tested, and the “VEGF-induced phosphorylation of KDR (Tyr1175) in HUVECs pre-treated with mAb-32 (10 ug/mL), Western blot, relative to VEGF alone” value was 53.2 % of VEGF-alone control and the “VEGF-induced phosphorylation of KDR (Tyr1175) in HUVECs pre-treated with mAb-43 (10 ug/mL), Western blot, relative to VEGF alone” value was 56.9 % of VEGF-alone control.
